Here are results for one substance from patent US20040054131A1.

The target of this assay is FGF receptor (FGFR) on Swiss 3T3 cells. The assay is described as follows: cell-based or functional assay.

basic FGF (ligand) showed an EC50 of mitogenesis (BrdU incorporation) in Swiss 3T3 cells with 15 U/ml heparin of 140 pM.
